According to patent US20210130452A1 (Merck KGaA, published 2021):
“And” between values parts separate entries of the source, which are not always exact repeats. Identical values can stand only once. Like-named read-outs stand apart in the source and are kept apart here.

Assays:
human IL-17F [1] = target: T1, human IL-17F (human, UniProt Q96PD4 31-163); assay: cell-based or functional assay
T1 sequence: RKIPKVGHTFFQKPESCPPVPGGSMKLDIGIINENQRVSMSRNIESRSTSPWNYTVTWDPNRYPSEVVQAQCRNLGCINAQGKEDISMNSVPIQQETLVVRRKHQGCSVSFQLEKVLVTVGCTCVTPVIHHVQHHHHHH

Cynomolgus monkey IL-17F [2] = target: T2, Cynomolgus monkey IL-17F (Cynomolgus monkey, UniProt G7P4V0 31-163); assay: cell-based or functional assay
T2 sequence: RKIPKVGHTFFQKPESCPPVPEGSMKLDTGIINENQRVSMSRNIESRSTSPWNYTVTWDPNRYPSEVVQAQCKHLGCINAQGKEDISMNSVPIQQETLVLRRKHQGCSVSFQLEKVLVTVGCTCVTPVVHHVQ

[3] = target: T3, human IL-17A/F heterodimer (human, UniProt Q16552 24-155; Q96PD4 31-163, limits assumed); assay: cell-based or functional assay
Target sequence in this assay (Q16552 24-155 limits assumed, one chain of several): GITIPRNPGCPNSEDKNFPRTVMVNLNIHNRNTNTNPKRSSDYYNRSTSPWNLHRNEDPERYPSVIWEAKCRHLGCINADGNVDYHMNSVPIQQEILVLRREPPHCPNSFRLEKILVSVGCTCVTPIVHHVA

human IL-17F [4] = target: T1, human IL-17F; assay: AlphaScreen IL-17F-IL-17RC; reference itself
human IL-17F [5] = target: T1, human IL-17F; assay: SPR (Biacore) off-rate
[6] = target: T3, human IL-17A/F heterodimer; assay: SPR (Biacore) off-rate
Target sequence in this assay (Q16552 24-155 limits assumed, chain 1 of 2, one chain of several): as the sequence (Q16552 24-155 limits assumed, one chain of several) above

human IL-17F [7] = target: T1, human IL-17F; assay: SPR (Biacore) off-rate; remark: listed apart in the source
Cynomolgus monkey IL-17F [8] = target: T2, Cynomolgus monkey IL-17F; assay: SPR (Biacore) off-rate
[9] = target: T3, human IL-17A/F heterodimer; assay: SPR (Biacore) off-rate; remark: listed apart in the source
Target sequence in this assay (Q16552 24-155 limits assumed, one chain of several): as above

human IL-17F [10] = target: T1, human IL-17F; assay: AlphaScreen IL-17F-IL-17RC; reference itself; remark: listed apart in the source

B1: IL17MS16A04 (VHH)
VHH: EVQLVESGGGLVQAGGSLRLSCAASGRTFSSYVVGWFRQAPGKEREFIGAISGSGDSIYYAVSEKDRFTISRDNGKNTLYLQMSSLKAEDTAVYYCTADQEFGYLRFGRSEYWGQGTQVTVSS
notes: Class 3 Nanobody, wild type; also called WT
Human IL-17F [1]
  IC50 cell based assay hIL-17F: 28 nM
Cynomolgus monkey IL-17F [2]
  IC50 cell based assay cyno IL-17F: 7.3 nM
[3]
  IC50 cell based assay hIL-17A/F: 8 nM
Human IL-17F [4]
  IC50 fold difference vs WT: 1 fold
Human IL-17F [5]
  koff: 0.000405 s⁻¹
[6]
  koff: 0.0024 s⁻¹
Human IL-17F [7]
  koff: 0.000382 s⁻¹ and 0.00041 s⁻¹
Cynomolgus monkey IL-17F [8]
  koff: 0.000636 s⁻¹
[9]
  koff: 0.00239 s⁻¹ and 0.0025 s⁻¹
Human IL-17F [10]
  IC50 fold difference vs WT: 1 fold
